Here are results for one protein from PMC5009729 (Nucleic Acids Research, 2016).

The data set concerns the molecule itself. The experiment in a line: native MS.

B1: Cse2 (natural protein)
chain: MADEIDAMALYRAWQQLDNGSCAQIRRVSEPDELRDIPAFYRLVQPFGWENPRHQQALLRMVFCLSAGKNVIRHQDKKSEQTTGISLGRALANSGRINERRIFQLIRADRTADMVQLRRLLTHAEPVLDWPLMARMLTWWGKRERQQLLEDFVLTTNKNA
In the case of B1, the binding result is “binds”.
